Holding throughout (assay): GST pull-down on glutathione-sepharose beads, anti-GFP immunoblot
A general note: Immunoblotting shows a protein as a band on a membrane.

One test deals with T1, GST control protein (UniProt P08515 1-218 = GST).
T1 construct: Negative control on glutathione-sepharose beads; also called purified GST
The procedure:
(§1) To examine the binding of p11 to the N-terminus of Naᵥ1.8 in vitro, glutathione-sepharose beads pre-incubated with purified GST, serving as control, or GST-SNS(I) were incubated at 4° C. overnight with GFP-p11 fusion protein or GFP protein extracted from transfected COS cells in PBS. After intensive washing with ice-cold PBS, the bound proteins were denatured in sample buffer (100 mM Tris-HCl pH 6.8, 4% SDS, 0.2% Bromophenol Blue, 20% Glycerol. 200 mM DDT), separated by 10% SDS-PAGE, and transferred to nitrocellulose membrane (Hybond ECL; Amersham Pharmacia Biotech). The membrane was blocked for 1 h in 5% nonfat dry mirnl in PBS-T at room temperature (0.1% Tween-20 in PBS, pH7.4). Primary anti-GFP antibody (Santa Cruz Biotechnology) in 1:800 dilution was applied for 1 hr at room temperature. Secondary antibody (horseradish peroxidase-conjugated sheep anti-mouse IgG, Amersham Pharmacia Biotech) in 1:2000 dilution was applied for 1 hr at room temperature. ECL Western Blotting Detection Reagents (Amersham Pharmacia Biotech) was applied according to the manufacturer's instructions and the blot was exposed to BioMax film (Kodak).
(§2) GFP/p11-1, -2, -3 fusion protein were expressed in COS-7 cells by transient transfection. The COS cell lysates were incubated with affinity-purified GST-SNS(I), the N-terminal domain of Naᵥ1.8 fused to GST, immobilized on glutathione-sepharose beads and were examined by immunoblotting with anti-GFP antibodies.
(§3) GFP/p11-1A, p11-2, p11-2-1, and p11-2-2 fusion proteins were expressed in COS-7 cells by transient transfection. The COS cell lysates were incubated with affinity-purified GST-SNS(I), the N-terminal domain of Naᵥ1.8 fused to GST, immobilized on glutathione-sepharose beads and were examined by immunoblotting with anti-GFP antibodies. […] These protein fragments correspond to amino acids 1-51, 33-51, 52-77 respectively. GST-SNS(I) efficiently pulled down cell lysate p11-2.

Another test deals with T2, GFP/p11-1 fusion protein (rat).
T2 construct: Used as COS-7 cell lysate; not shown: GFP reporter at the N end and its junction; vector-encoded C-terminal tail after the XbaI site (reverse primer p11-1-3' has no stop codon)
T2 chain: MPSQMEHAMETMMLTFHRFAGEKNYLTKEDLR
The procedure:
as §1, §2, §3

Test [1] concerns the target T3, GFP/p11-1A fusion protein (rat, UniProt P05943 1-51).
T3 construct: Used as COS-7 cell lysate; not shown: GFP reporter at the N end and its junction; vector-encoded C-terminal tail after the XbaI site (reverse primer p11-2-1R has no stop codon)
T3 sequence: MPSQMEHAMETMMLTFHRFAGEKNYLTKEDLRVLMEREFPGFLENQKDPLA
Here is the method: as §1, §2, §3

T1 sequence (P08515 whole entry): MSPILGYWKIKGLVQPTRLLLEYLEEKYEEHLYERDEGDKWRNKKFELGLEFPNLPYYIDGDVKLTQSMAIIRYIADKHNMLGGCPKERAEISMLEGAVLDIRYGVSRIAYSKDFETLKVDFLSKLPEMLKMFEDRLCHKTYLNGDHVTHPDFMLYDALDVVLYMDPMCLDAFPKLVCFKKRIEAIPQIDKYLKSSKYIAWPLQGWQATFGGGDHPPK

B1: GFP-p11 fusion protein (other, not shown: large carriers; small tags and cut ends)
chain: MPSQMEHAMETMMLTFHRFAGEKNYLTKEDLRVLMEREFPGFLENQKDPLAVDKIMKDLDQCRDGKVGFQSFLSLVAGLIIACNDYFVVHMKQKK
notes: Expressed from pBS-GFP/p11 in COS-7 cells and used as cell extract
For the molecule B1, the binding result with GST control protein was “no binding”.

B2: GST/Nav1.8 N-terminus fusion protein, designated GST-SNS(I) (other)
chain: MELPFASVGTTNFRRFTPESLAEIEKQIAAHRAAKKARTKHRGQEDKGEKPRPQLDLKDCNQLPKFYGELPAELVGEPLEDLDPFYSTHRTFMVLNKSRTISRFSATWALWLFSPFNLIRRTAIKVS
notes: also called GST/SNS(I) fusion protein; not shown: glutathione-S-transferase (GST) as encoded by vector pGEX-5X-1 (Amersham Pharmacia Biotech); species and limits not stat; vector-encoded residues between GST and the EcoRI site of pGEX-5X-1
For B2, the binding result (with GFP/p11-1 fusion protein; in test [1]) was “no binding” in each case.

The values above are taken from patent US20040248207A1 (UNIVERSITY COLLEGE LONDON, published 2004).
